Test results as given in the supplement of paper PMC5998384.

Assays:
HeLa Kyoto [1] = assay: melting temperature (median over replicates), in situ; higher = more thermally stable
HeLa Kyoto [2] = assay: solubility change mitosis vs G1/S (difference of NP-40 vs SDS log2 ratios) (log2 ratio difference); higher = more soluble in mitosis
HeLa Kyoto [3] = assay: thermal stability score vs G1/S (z-score of summed log2 fold changes over temperatures); higher = more thermally stable than in G1/S
HeLa Kyoto [4] = assay: solubility in G1/S (NP-40 vs SDS abundance) (log2 ratio); higher = more soluble; settings: cell cycle stage: G1/S
[5] = cell cycle stage: early G1 (4.5 h after nocodazole release)
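Wherever melting temperature (median over replicates), in situ is given: HeLa Kyoto cells synchronized by double thymidine or nocodazole block, proteins quantified by TMT10plex mass spectrometry, three independent biological replicates.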
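Wherever solubility change mitosis vs G1/S (difference of NP-40 vs SDS log2 ratios) is given: synchronized HeLa Kyoto cells (double thymidine block for G1/S, nocodazole release for mitosis), protein amounts in NP-40 versus SDS lysates quantified by mass spectrometry, three biological replicates.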
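Wherever solubility in G1/S (NP-40 vs SDS abundance) is given: HeLa Kyoto cells arrested at G1/S by double thymidine block, proteins quantified by TMT10plex mass spectrometry in mild NP-40 versus SDS extracts, three biological replicates.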
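Wherever thermal stability score vs G1/S (z-score of summed log2 fold changes over temperatures) is given: synchronized HeLa Kyoto cells, proteins quantified by TMT10plex mass spectrometry, three biological replicates, mitosis taken 0.5 h after nocodazole release, G1/S directly after double thymidine block.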

Sequence of CKB (chain, as listed by the source): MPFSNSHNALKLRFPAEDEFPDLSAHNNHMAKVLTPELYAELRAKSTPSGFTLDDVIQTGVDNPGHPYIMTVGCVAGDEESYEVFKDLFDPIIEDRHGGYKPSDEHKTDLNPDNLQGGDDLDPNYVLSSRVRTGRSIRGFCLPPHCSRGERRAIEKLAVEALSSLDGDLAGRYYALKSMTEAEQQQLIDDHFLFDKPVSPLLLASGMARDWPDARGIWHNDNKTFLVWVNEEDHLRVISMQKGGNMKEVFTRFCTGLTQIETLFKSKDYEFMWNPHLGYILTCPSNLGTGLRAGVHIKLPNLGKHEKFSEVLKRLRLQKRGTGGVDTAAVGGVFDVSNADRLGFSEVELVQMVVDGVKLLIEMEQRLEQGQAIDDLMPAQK

Substance	melting temperature (HeLa Kyoto [1]; cell cycle stage: G1/S)	melting temperature (HeLa Kyoto [1]; cell cycle stage: mitosis)	solubility change mitosis (log2) (HeLa Kyoto [2])	thermal stability score (HeLa Kyoto [3]; [5])	thermal stability score (HeLa Kyoto [3]; cell cycle stage: mitosis)	solubility in G1/S (log2) (HeLa Kyoto [4])
MSRRALRRLRGEQRGQEPLGPGALHFDLRDDDDAEEEGPKRELGVRRPGGAGKEGVRVNNRFELINIDDLEDDPVVNGERSGCALTDAVAPGNKGRGQRGNTESKTDGDDTETVPSEQSHASGKLRKKKKKQKNKKSSTGEASENGLEDIDRILERIEDSTGLNRPGPAPLSSRKHVLYVEHRHLNPDTELKRYFGARAILGEQRPRQRQRVYPKCTWLTTPKSTWPRYSKPGLSMRLLESKKGLSFFAFEHSEEYQQAQHKFLVAVESMEPNNIVVLLQTSPYHVDSLLQLSDACRFQEDQEMARDLVERALYSMECAFHPLFSLTSGACRLDYRRPENRSFYLALYKQMSFLEKRGCPRTALEYCKLILSLEPDEDPLCMLLLIDHLALRARNYEYLIRLFQEWEAHRNLSQLPNFAFSVPLAYFLLSQQTDLPECEQSSARQKASLLIQQALTMFPGVLLPLLESCSVRPDASVSSHRFFGPNAEISQPPALSQLVNLYLGRSHFLWKEPATMSWLEENVHEVLQAVDAGDPAVEACENRRKVLYQRAPRNIHRHVILSEIKEAVAALPPDVTTQSVMGFDPLPPSDTIYSYVRPERLSPISHGNTIALFFRSLLPNYTMEGERPEEGVAGGLNRNQGLNRLMLAVRDMMANFHLNDLEAPHEDDAEGEGEWD [TCF25]	49.4 °C	48.4 °C	0.0389	0.666	0.63	0.0319
MALPHDSNETSYLLPPNNEDWGRQTIPDFVYGQKDLMAEGIQWPRNAPGIPDALPQSPFDAALCSAWKQRVELGLFRYRLRELQTQILPGAVGFVAQLNVERGVQRRPPQTIKSVRQAFDPVQFNFNKIRPGEVLFRLHREPDLPGTLLQEDILVVINVSPLEWGHVLLVPEPARQLPQRLLPGALRAGIEAVLLSLHPGFRVGFNSLGGLASVNHLHLHGYYLAHRLPVEQAPSEPLDPGGHLHLLQDLPAPGFLFYTRGPGPDLESLISRVCRATDYLTDHEIAHNLFVTRGAPPGKTSPSSALTGVRVILWARKSSFGIKDGEAFNVALCELAGHLPVKTSQDFSSLTEAAAVALIQDCRLPPSQAEDVQAALVALMSQEEQ [GDPGP1]	52.5 °C	51 °C	-0.107	-0.152	-0.661	0.217
MNSAEQTVTWLITLGVLESPKKTISDPEGFLQASLKDGVVLCRLLERLLPGTIEKVYPEPRSESECLSNIREFLRGCGASLRLELLFPPSQPPQHLVTTILLSASTFDANDLYQGQNFNKVLSSLVTLNKVTADIGLGSDSVCARPSSHRIKSFDSLGSQSLHTRTSKLFQGQYRSLDMTDNSNNQLVVRAKFNFQQTNEDELSFSKGDVIHVTRVEEGGWWEGTLNGRTGWFPSNYVREVKASEKPVSPKSGTLKSPPKGFDTTAINKSYYNVVLQNILETENEYSKELQTVLSTYLRPLQTSEKLSSANISYLMGNLEEICSFQQMLVQSLEECTKLPEAQQRVGGCFLNLMPQMKTLYLTYCANHPSAVNVLTEHSEELGEFMETKGASSPGILVLTTGLSKPFMRLDKYPTLLKELERHMEDYHTDRQDIQKSMAAFKNLSAQCQEVRKRKELELQILTEAIRNWEGDDIKTLGNVTYMSQVLIQCAGSEEKNERYLLLFPNVLLMLSASPRMSGFIYQGKLPTTGMTITKLEDSENHRNAFEISGSMIERILVSCNNQQDLQEWVEHLQKQTKVTSVGNPTIKPHSVPSHTLPSHPVTPSSKHADSKPAPLTPAYHTLPHPSHHGTPHTTINWGPLEPPKTPKPWSLSCLRPAPPLRPSAALCYKEDLSKSPKTMKKLLPKRKPERKPSDEEFASRKSTAALEEDAQILKVIEAYCTSAKTRQTLNSTWQGTDLMHNHVLADDDQPSLDSLGRRSSLSRLEPSDLSEDSDYDSIWTAHSYRMGSTSRKSCCSYISHQN [ARHGEF7]	48.5 °C	49.6 °C	-0.0942	0.815	1.6	0.105
MASPQLCRALVSAQWVAEALRAPRAGQPLQLLDASWYLPKLGRDARREFEERHIPGAAFFDIDQCSDRTSPYDHMLPGAEHFAEYAGRLGVGAATHVVIYDASDQGLYSAPRVWWMFRAFGHHAVSLLDGGLRHWLRQNLPLSSGKSQPAPAEFRAQLDPAFIKTYEDIKENLESRRFQVVDSRATGRFRGTEPEPRDGIEPGHIPGTVNIPFTDFLSQEGLEKSPEEIRHLFQEKKVDLSKPLVATCGSGVTACHVALGAYLCGKPDVPIYDGSWVEWYMRARPEDVISEGRGKTH [MPST]	50.1 °C	50.5 °C	-0.0783	3.35	0.97	0.45
MNGTLDHPDQPDLDAIKMFVGQVPRTWSEKDLRELFEQYGAVYEINVLRDRSQNPPQSKGCCFVTFYTRKAALEAQNALHNMKVLPGMHHPIQMKPADSEKNNAVEDRKLFIGMISKKCTENDIRVMFSSFGQIEECRILRGPDGLSRGCAFVTFTTRAMAQTAIKAMHQAQTMEGCSSPMVVKFADTQKDKEQKRMAQQLQQQMQQISAASVWGNLAGLNTLGPQYLALYLQLLQQTASSGNLNTLSSLHPMGGLNAMQLQNLAALAAAASAAQNTPSGTNALTTSSSPLSVLTSSGSSPSSSSSNSVNPIASLGALQTLAGATAGLNVGSLAGMAALNGGLGSSGLSNGTGSTMEALTQAYSGIQQYAAAALPTLYNQNLLTQQSIGAAGSQKEGPEGANLFIYHLPQEFGDQDLLQMFMPFGNVVSAKVFIDKQTNLSKCFGFVSYDNPVSAQAAIQSMNGFQIGMKRLKVQLKRSKNDSKPY [CELF1]	47.5 °C	48.1 °C	-0.0537	1.56	2.85	0.269
MATPVVTKTAWKLQEIVAHASNVSSLVLGKASGRLLATGGDDCRVNLWSINKPNCIMSLTGHTSPVESVRLNTPEELIVAGSQSGSIRVWDLEAAKILRTLMGHKANICSLDFHPYGEFVASGSQDTNIKLWDIRRKGCVFRYRGHSQAVRCLRFSPDGKWLASAADDHTVKLWDLTAGKMMSEFPGHTGPVNVVEFHPNEYLLASGSSDRTIRFWDLEKFQVVSCIEGEPGPVRSVLFNPDGCCLYSGCQDSLRVYGWEPERCFDVVLVNWGKVADLAICNDQLIGVAFSQSNVSSYVVDLTRVTRTGTVARDPVQDHRPLAQPLPNPSAPLRRIYERPSTTCSKPQRVKQNSESERRSPSSEDDRDERESRAEIQNAEDYNEIFQPKNSISRTPPRRSEPFPAPPEDDAATAKEAAKPSPAMDVQFPVPNLEVLPRPPVVASTPAPKAEPAIIPATRNEPIGLKASDFLPAVKIPQQAELVDEDAMSQIRKGHDTMCVVLTSRHKNLDTVRAVWTMGDIKTSVDSAVAINDLSVVVDLLNIVNQKASLWKLDLCTTVLPQIEKLLQSKYESYVQTGCTSLKLILQRFLPLITDMLAAPPSVGVDISREERLHKCRLCYKQLKSISGLVKSKSGLSGRHGSTFRELHLLMASLD [KATNB1]	50.5 °C	51 °C	-0.0538	0.62	0.499	-0.135
MAAGTAAALAFLSQESRTRAGGVGGLRVPAPVTMDSFFFGCELSGHTRSFTFKVEEEDDAEHVLALTMLCLTEGAKDECNVVEVVARNHDHQEIAVPVANLKLSCQPMLSLDDFQLQPPVTFRLKSGSGPVRITGRHQIVTMSNDVSEEESEEEEEDSDEEEVELCPILPAKKQGGRP [NPM3]	54 °C	53 °C	0.0933	-0.577	-2.29	-0.153
MVKLAAKCILAGDPAVGKTALAQIFRSDGAHFQKSYTLTTGMDLVVKTVPVPDTGDSVELFIFDSAGKELFSEMLDKLWESPNVLCLVYDVTNEESFNNCSKWLEKARSQAPGISLPGVLVGNKTDLAGRRAVDSAEARAWALGQGLECFETSVKEMENFEAPFHCLAKQFHQLYREKVEVFRALA [IFT27]	52.3 °C	53.7 °C	-0.134	-0.15	-0.857	0.371
MAEAVLRVARRQLSQRGGSGAPILLRQMFEPVSCTFTYLLGDRESREAVLIDPVLETAPRDAQLIKELGLRLLYAVNTHCHADHITGSGLLRSLLPGCQSVISRLSGAQADLHIEDGDSIRFGRFALETRASPGHTPGCVTFVLNDHSMAFTGDALLIRGCGRTDFQQGCAKTLYHSVHEKIFTLPGDCLIYPAHDYHGFTVSTVEEERTLNPRLTLSCEEFVKIMGNLNLPKPQQIDFAVPANMRCGVQTPTA [ETHE1]	56.6 °C	56.5 °C	-0.0383	-1	-1.06	0.214
CKB	51 °C	51.3 °C	-0.115	1.63	2	0.651
MENSSAASASSEAGSSRSQEIEELERFIDSYVLEYQVQGLLADKTEGDGESERTQSHISQWTADCSEPLDSSCSFSRGRAPPQQNGSKDNSLDMLGTDIWAANTFDSFSGATWDLQPEKLDFTQFHRKVRHTPKQPLPHIDREGCGKGKLEDGDGINLNDIEKVLPAWQGYHPMPHEVEIAHTKKLFRRRRNDRRRQQRPPGGNKPQQHGDHQPGSAKHNRDHQKSYQGGSAPHPSGRPTHHGYSQNRRWHHGNMKHPPGDKGEAGAHRNAKETMTIENPKLEDTAGDTGHSSLEAPRSPDTLAPVASERLPPQQSGGPEVETKRKDSILPERIGERPKITLLQSSKDRLRRRLKEKDEVAVETTTPQQNKMDKLIEILNSMRNNSSDVDTKLTTFMEEAQNSTNSEEMLGEIVRTIYQKAVSDRSFAFTAAKLCDKMALFMVEGTKFRSLLLNMLQKDFTVREELQQQDVERWLGFITFLCEVFGTMRSSTGEPFRVLVCPIYTCLRELLQSQDVKEDAVLCCSMELQSTGRLLEEQLPEMMTELLASARDKMLCPSESMLTRSLLLEVIELHANSWNPLTPPITQYYNRTIQKLTA [CTIF]	52.1 °C		0.157	-0.292	0.109	0.0528
MAVATAAAVLAALGGALWLAARRFVGPRVQRLRRGGDPGLMHGKTVLITGANSGLGRATAAELLRLGARVIMGCRDRARAEEAAGQLRRELRQAAECGPEPGVSGVGELIVRELDLASLRSVRAFCQEMLQEEPRLDVLINNAGIFQCPYMKTEDGFEMQFGVNHLGHFLLTNLLLGLLKSSAPSRIVVVSSKLYKYGDINFDDLNSEQSYNKSFCYSRSKLANILFTRELARRLEGTNVTVNVLHPGIVRTNLGRHIHIPLLVKPLFNLVSWAFFKTPVEGAQTSIYLASSPEVEGVSGRYFGDCKEEELLPKAMDESVARKLWDISEVMVGLLK [RDH14]	51.8 °C	51.6 °C	0.0299	0.98	0.294	-0.158
MLQTLYDYFWWERLWLPVNLTWADLEDRDGRVYAKASDLYITLPLALLFLIVRYFFELYVATPLAALLNIKEKTRLRAPPNATLEHFYLTSGKQPKQVEVELLSRQSGLSGRQVERWFRRRRNQDRPSLLKKFREASWRFTFYLIAFIAGMAVIVDKPWFYDMKKVWEGYPIQSTIPSQYWYYMIELSFYWSLLFSIASDVKRKDFKEQIIHHVATIILISFSWFANYIRAGTLIMALHDSSDYLLESAKMFNYAGWKNTCNNIFIVFAIVFIITRLVILPFWILHCTLVYPLELYPAFFGYYFFNSMMGVLQLLHIFWAYLILRMAHKFITGKLVEDERSDREETESSEGEEAAAGGGAKSRPLANGHPILNNNHRKND [CERS2]	52.7 °C	52.9 °C	-0.158	-0.502	-0.489	0.0784
CUL7		49.1 °C	-0.279	0.604	0.125	0.0417
